Test: yeast display, Sf9 membrane polyspecificity reagent, FACS + sequencing; frameworks hold sequencing errors
In short: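 Nanobodies from a synthetic yeast display library (Saccharomyces cerevisiae BJ5465), induced 36–48 hours with galactose, were stained 1 hour at 4 °C with 10% biotinylated, detergent-solubilized Sf9 membrane reagent, enriched on streptavidin microbeads, then FACS-sorted. Anti-HA (expression) and streptavidin (reagent binding) fluorescence set low and high (top ~1%) gates. Polyreactivity labels come from the gate of origin. Genes were colony-PCR amplified, MiSeq 2 × 250 sequenced and filtered by CDR length.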

| Sequence | polyreactivity (PSR sort gate) |
| --- | --- |
| QVQLVESGGGLVQAGGSLRLSCAASGFTFSFYAMGWYRQAPGKERELVATIRSGGRTYYADSVKGRFTISRDNAKNTVYLQRNSLKPEDTAVYYCAADDHYGRGFQYYYWGQGTQVTVSS | high polyreactivity |
| QVQLLESGGGLVQAGGSLRLSCAASGFNFYYYAMGWYRQAPGKERELVAAISKSGGSTHYADSVKGRFTISRDNAKHTVYLQMNSLKPEDTAVYYCAARYILSKYGSGVRYNYWGQGTQVTVSS | high polyreactivity |
| QVQLVESGGGLVQAGGSLRLSCAASGSIFNPYAMGWSRQAPGKEWELVAAISYDTTSTYYADSVKGRFTISRDNAKNTDYLQMNSLKPEDTAVYYCAARDQYGPGYRSESLDSWGQGTQETVSS | low polyreactivity |
| QVQLVESGGGLVQAGGSLRLSCAASGRTFRFNAMGWYRQAPGKERELVAAISSRGGNTYYADSVKGRFTISRDNAKNTVYLQMNSLKPVDTSVYYCNKDLNYWGYAKYYGYYYWGQGTQVTVSS | high polyreactivity |
| QVQLVESGGGLVQAGGSLRLSCAASGFIFLPYAMGWARQAPGKERELVAAITRGGRTYYADSVKGRFTISRDNAKNTVYLQMNSLKPEDTAVYYCAATTYLVWGYNYWGQGTQVTVSS | low polyreactivity |
| QVQLVESGGGLVHAGGSLRLSCAASGLIFHHNAMGWYRQAPGKERELVAAISRSAGSTYYADSVKGRFTISRDNAKNTVYLQMNSLKPEDTAVYYCAKRPTPTSKYDTVGYGYWGQGTQVTVSS | low polyreactivity |
| QVQLVESGGGLVQAGGSLRLSCAASGFIFAGNAMGWYRQAPGKERELVAAISGSGGSTYYADSVKGRFTISRDNAKNTVYLQMNSLKPEDTAVYYCNAVYYRYYDVEGFDYWGQGTQVTVSS | high polyreactivity |
| QVQLEESGGGLVQAGGSLRLSCAASGFIFGYYAMGSYRQAPGKERELVAAISKSGGRTRYADSVKGRFTISRDNAKNTVYLQMNSLKPVDTAVYYCATYDPARSTQGYDYWGQGTQVTVSS | high polyreactivity |
| QVQLLESGGGLVQAGGSLRLSCAASGLTYYYAMGWYRQAPGKERELVAAISYSGGRTNYADSVKGRFTISRDNAKNTVYLQMNSLKPEDTAVYFCAAVGPRTDYSGYRYYYWVQGTQVTVSS | high polyreactivity |
| QVQLVESGGGLVQAGGSLRLSCAASGRIFPGKAMGWYRQAPGKEREFVASINWSRGSTFYADSVKGRFTISRDNAKNTVYLQMNRLIPEDTAVYYCSARTFGYYRSRSYNYWGQGTQVTVSS | high polyreactivity |
| QVQLVESGGGLVQAGGSLRLSCAACGFTFYYYAMGWYRQAPGKERELVASISASGGITYYADSVKGRFTISRDNAKNTVYLQMNSLKPEDTAVYYCATRQGYRLYYWGQGTQVNVSS | high polyreactivity |
| QVQLVESGGGLVQAGGSLRLSCAASGFIFLGYAMGWYRQAPGKEREFVAGITITGGSTYYADSVKGRFTISRDNAKNTVYLQMNSLKPEDTAVYYCNAESNLYRRRRNYWGQGTQVTVSS | low polyreactivity |
| QVQLVESGGGLVQAGGSLRLSCAASGSIFVRYAMGWYRQAPGKERELVAAISSGGRTYYADSVKGRFTISRDNAKNTVYLQMNSLKPEDTAVYYCNAVKRVPSLGPYDYWGQGTQVTVSS | high polyreactivity |
| QVQLVESAGGLVQAGGSLSLSCAASGRTFVIYAMGSDRQAPGKERELVAGIDSGTSTYADSVKGRFTISRDNAKNTVYLQMNSLKPEDTAVYYCAADFAPDGAGWYIPGDYDSWGQGTQVTVSS | low polyreactivity |
| QVQLVESGGALVQAGGSLRISCAASGSIFPQNAMGWYRQAPEKERELVAAITTGGGRTYYADSVKGRFTISRDNVKNTVYLQMNSLKPEDTAVYYCYIRWPFRHYGSWGLGTQVTVSS | high polyreactivity |
| QVQLVESGGGLVQAGGSLRLSCAASGRIFHYYAMGWYRQAPGKERELVAAISNTDGSTYYADSVKGRFTISRDNAKYTVYLQMNSLKPEDTAVYYCAADSLGALYRGNYPYGYWGQGTQVNVSS | high polyreactivity |
| QVQLVESGGGLVQAGGSLRLSCAASGSIFNNYAMGWYRQAPGKEREFVAAISRSGGSTYYADSVKGRFTISRDNAKNTVYLQMNSLKPEDTAVYYCATDHGRYHGRYDYWGQGTQVTVSS | high polyreactivity |
